Laboratory results reported in US20180043014A1.

Legend:
[1] = biological target: GPNMB (CG56972) on the surface of human tumor cell lines (human) (UniProt Q14956); experiment: flow cytometry, WM2664 cells, untreated; background control
[2] = biological target: GPNMB (CG56972) on the surface of human tumor cell lines (human) (UniProt Q14956); experiment: flow cytometry, A375 cells, untreated, 24 h; background control
[3] = biological target: GPNMB (CG56972) on the surface of human tumor cell lines (human) (UniProt Q14956); experiment: flow cytometry on intact, non-permeabilized A375 melanoma cells, Treatment: None; primary antibody 10 ug/mL per methods, geometric mean fluorescence intensity
[4] = biological target: GPNMB (CG56972) on the surface of human tumor cell lines (human) (UniProt Q14956); experiment: flow cytometry, SF539 (printed SF549) cells, untreated, 48 h; background control
[5] = biological target: GPNMB (CG56972) on the surface of human tumor cell lines (human) (UniProt Q14956); experiment: flow cytometry, A375 cells, untreated, 48 h; background control
[6] = biological target: GPNMB (CG56972) on the surface of human tumor cell lines (human) (UniProt Q14956); experiment: flow cytometry, SF539 (printed SF549) cells, untreated, 12 h; background control
[7] = biological target: GPNMB (CG56972) on the surface of human tumor cell lines (human) (UniProt Q14956); experiment: flow cytometry, SKMEL2 cells, untreated; background control
[8] = biological target: GPNMB (CG56972) on the surface of human tumor cell lines (human) (UniProt Q14956); experiment: flow cytometry, A375 cells, untreated, 12 h; background control
[9] = biological target: GPNMB (CG56972) on the surface of human tumor cell lines (human) (UniProt Q14956); experiment: flow cytometry, SF539 (printed SF549) cells, untreated, 24 h; background control

Sequence of GPNMB (CG56972) on the surface of human tumor cell lines (human) (Q14956 23-492): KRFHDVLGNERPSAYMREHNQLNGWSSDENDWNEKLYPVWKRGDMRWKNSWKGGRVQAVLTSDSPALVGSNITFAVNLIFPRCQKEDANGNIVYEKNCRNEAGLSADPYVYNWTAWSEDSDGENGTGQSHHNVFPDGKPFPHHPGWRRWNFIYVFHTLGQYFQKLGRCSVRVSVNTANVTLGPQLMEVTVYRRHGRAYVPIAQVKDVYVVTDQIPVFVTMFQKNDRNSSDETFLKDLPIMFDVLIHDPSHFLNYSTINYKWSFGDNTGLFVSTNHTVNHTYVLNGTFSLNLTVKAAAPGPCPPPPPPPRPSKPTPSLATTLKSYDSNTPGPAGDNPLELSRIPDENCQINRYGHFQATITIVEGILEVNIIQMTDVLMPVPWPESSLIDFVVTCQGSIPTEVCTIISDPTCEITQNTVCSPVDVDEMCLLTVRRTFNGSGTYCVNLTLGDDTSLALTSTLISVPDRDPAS

Question: For “unrelated human IgG2 isotype control monoclonal antibody”, which GeoMean [1] is on record?
Answer: The GeoMean was 7.3.

Question: What about the GeoMean [2] of the same substance?
Answer: Its GeoMean is 7.5.

Question: What about the GeoMean [3] of the same substance?
Answer: Its GeoMean is 8.4.

Question: And the GeoMean [4]?
Answer: Its GeoMean is 9.5.

Question: What about the GeoMean [5] of the same substance?
Answer: Its GeoMean is 7.8.

Question: And the GeoMean [6]?
Answer: The GeoMean was 8.2.

Question: And the GeoMean [7]?
Answer: The GeoMean was 6.9.

Question: What about the GeoMean [8] of the same substance?
Answer: Its GeoMean is 7.4.

Question: What about the GeoMean [9] of the same substance?
Answer: The GeoMean was 8.7.
